In test [1] the target is T1, rat CD70 extra-cellular domain (ECD) linked to His tag (rat).
T1 construct: extracellular domain
Nature of the test: BLI, global fit, cell repeated in each row; response below range of quantification, filing reports no cross-reactivity. As to the method:
(§1) Recombinant proteins consisting of human, rat, or mouse CD70 extra-cellular domain (ECD) linked to His tag was purchased (from ACRO systems). 69A7 and 2E7 (20 nM) were immobilized on anti-human IgG Fc biosensor tips (ForteBio). Binding assays using one concentration (100 nM) of recombinant protein in solution were performed using Octet RED (ForteBio). Association time was set at 180s and dissociation time was set at 300s. Binding affinity was calculated using ForteBio Data Acquisition 6.3 software. Affinity was derived by fitting the kinetic data to a 1:1 Langmuir binding model utilizing global fitting algorithms. […] 2E7 had no cross-reactivity to rat or mouse CD70 (Table 10).
On the technique in general: Biolayer interferometry detects binding as a change in optical thickness at a sensor tip.

For test [2], the target named is T2, mouse CD70 extra-cellular domain (ECD) linked to His tag (mouse, UniProt O55237 45-195).
T2 construct: extracellular domain; also called MS CD70; not shown: His tag
T2 sequence (looked up): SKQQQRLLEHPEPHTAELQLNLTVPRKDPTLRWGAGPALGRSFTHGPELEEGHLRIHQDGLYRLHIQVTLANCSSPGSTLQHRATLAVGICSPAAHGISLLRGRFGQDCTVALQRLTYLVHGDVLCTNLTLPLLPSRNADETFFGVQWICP
The description is as above. As to the method:
as §1

Test [3] addresses T3, human CD70 extra-cellular domain (ECD) linked to His tag (human, UniProt P32970 39-193).
T3 construct: extracellular domain; also called Hu CD70; HU CD70; not shown: His tag
T3 sequence (looked up): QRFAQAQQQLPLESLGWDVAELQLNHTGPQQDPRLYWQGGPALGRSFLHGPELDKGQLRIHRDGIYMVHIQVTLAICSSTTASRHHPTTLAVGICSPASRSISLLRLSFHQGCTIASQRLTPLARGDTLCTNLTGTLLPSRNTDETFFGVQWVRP
As to the kind of experiment: BLI (Octet RED), antibody on anti-human Fc tips, CD70 ECD-His at 100 nM. As to the method: as §1

Test [4] has as its target T4, cyno CD70 recombinant ECD protein (cyno).
T4 construct: extracellular domain; The sentence on the purchase names human, rat and mouse ECD-His only
Nature of the test: BLI, global 1:1 fit over 200-3.13 nM; cell repeated in each concentration row.

For test [5], the target named is T3, human CD70 extra-cellular domain (ECD) …. The test is described as above.
Test [6] has as its target T5, human CD70 expressed on the cell surface of tumor cell lines (human, UniProt P32970 1-193).
T5 construct: whole, on cells
T5 sequence (looked up): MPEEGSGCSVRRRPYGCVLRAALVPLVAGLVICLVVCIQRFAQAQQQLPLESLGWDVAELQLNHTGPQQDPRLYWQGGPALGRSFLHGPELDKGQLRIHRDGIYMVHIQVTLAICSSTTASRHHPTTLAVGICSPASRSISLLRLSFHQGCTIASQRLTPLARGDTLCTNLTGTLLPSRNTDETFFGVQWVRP
As to the kind of experiment: flow cytometry on DBTRG-05MG cells, PE anti-human Fc, MFI; same fit as Table 6, which prints it in nM. As to the method:
The lead antibodies were tested for binding to renal carcinoma cells and glioblastoma cells expressing CD70 on the cell surface by flow cytometry. […] U251 cells were cultured with MEM medium containing of 10% FBS and 1% NEAA+1 mM sodium pyruvate. DBTRG-05MG cells were cultured with DMEM medium (Gibco, Cat #C11995500BT) containing of 10% FBS. Each of the lead antibodies and the controls were incubated for 30 mins with the different cell lines (3×10⁵ cells per well) in 0.2 ml FACS buffer (1×PBS with 0.1% BSA) at 4° C. Then, the cells were pelleted, washed, and incubated at 4° C. for 30 mins with 100 μl of 1:200 diluted PE-conjugated anti human Fc (Abcam, Ab98596) in FACS buffer. The cells were pelleted again, washed with PBS, resuspended in FACS buffer and analyzed by flow cytometer (Beckman, CytoFLEX).
Antibodies 2H8 and 2D2 had slightly higher binding ability to the cell lines than that of antibody 69A7.
For orientation: Flow cytometry measures light scatter and fluorescence of single cells or particles in a stream.

Test [7] deals with T6, CD70 ECD (antigen immobilized on the CM5 chip) (UniProt P32970 39-193).
T6 construct: extracellular domain; also called CD70 antigen
T6 sequence (looked up): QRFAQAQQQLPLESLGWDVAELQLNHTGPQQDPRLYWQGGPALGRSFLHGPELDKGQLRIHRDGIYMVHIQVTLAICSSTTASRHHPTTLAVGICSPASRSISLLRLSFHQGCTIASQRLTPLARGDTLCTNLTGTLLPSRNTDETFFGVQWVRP
As to the kind of experiment: SPR (Biacore T200), CD70 ECD on CM5 chip. As to the method:
The immobilization of antigen CD70 ECD was performed at 25° C. with HBS-EP as the running buffer. Sensor chip surface of flow cells 1, 4 were activated by freshly mixed 50 mmol/L N-Hydroxy succinimide (NHS) and 200 mmol/L 1-ethyl-3-(3-dimethylaminopropyl) carbodiimide hydrochloride (EDC) for 420s (10 μL/min). Afterwards, CD70 antigen diluted in 10 mmol/L NaAC (pH 4.5) was injected into flow cell 4 to achieve conjugation of the appropriate Response Unit, while flow cell 1 was set as a blank. After the amine coupling reaction, the remaining active coupling sites on chip surface were blocked by 420s injection of 1 mol/L ethanolamine hydrochloride.
The assay was performed at 25° C. and the running buffer was HBS-EP. Diluted antibodies were injected over the surface of flow cells 1 and 4 during the association phase, followed by injecting running buffer as the dissociation phase. All the data were processed using Biacore T200 Evaluation software version 3.1. Flow cell 1 and a blank injection of buffer in each cycle were used as a double reference for Response Units subtraction. Kinetic data of the interaction between the antibodies and CD70 antigen were obtained through affinity measurement.

Test [8] deals with T5, human CD70 expressed on the cell …. Nature of the test: flow cytometry on Raji cells, PE anti-human Fc, MFI(PE); the text gives this EC50 only as about 19 nM. As to the method: Binding activity of 2E7 or the isotype control with a target cell line (Raji) or a cell line (MCF-7) that has negligible level of CD70 expression were evaluated by flow cytometry (Beckman, Cytoflex). 3×10⁵ cells per well were seeded on a 96-well V-bottomed plate and incubated with 100 μl of 2E7 in serial dilutions. After 30 min incubation at 4° C., cells were washed twice with PBS, stained with 100 μl of 1:200 diluted PE-conjugated anti-human Fc in FACS buffer (1×PBS containing 1% BSA), then incubated at 4° C. for 30 min. Cells were finally washed two times with PBS and analyzed by flow cytometric analysis.

B1: 2E7, full IgG (antibody, V domains shown)
VH: QVQLQESGPGLVKPSETLSLTCTVSGGSVSSDYYYWSWIRQPPGKGLEWLGYIYYSGSTNYNPSLKSRVTISVDTSKNQFSLKLRSVTTADTAVYYCARGDGDFLGVCFDYWGQGTLVTVSS
VL: EIVLTQSPATLSLSPGERATLSCRASQSVSSYLAWYQQKPGQAPRLLIFDASNRATGIPARFSGSGSGTDFTLTISSLEPEDFAVYYCQQRSNWPLTFGGGTKVEIK
B1: the Kd (usually a measure of binding affinity in units of concentration) in test [1] came to 1.75 nM; in test [2], 1030 nM; in test [3], 0.979 nM; in test [4], 0.39 nM; in test [5] it was 0.807 nM. In addition, the koff (as a rule, a measure of how fast the partners let go of each other) in test [1] was determined as 0.0104 s⁻¹; in test [2] it was 0.121 s⁻¹; in test [3], 0.000357 s⁻¹; in test [4], 0.000241 s⁻¹; in test [5] it was 0.000254 s⁻¹. The kon (usually the second-order rate constant of association) in test [1] was 5.9e+06 M⁻¹ s⁻¹; in test [2] it was 117000 M⁻¹ s⁻¹; in test [3], 365000 M⁻¹ s⁻¹; in test [4], 618000 M⁻¹ s⁻¹; in test [5], 314000 M⁻¹ s⁻¹. For the same molecule, the concentration for a half-maximal effect (EC50) – broadly, the concentration giving half of the maximal effect – in test [6] came out at 0.917 µg/mL; in test [8], 2.98 µg/mL. For the same molecule, the “fold greater affinity than parent antibody 69A7” value in test [7] stood at 22 fold.

The record behind these values is patent US20250066490A1 (PROFOUNDBIO US, published 2025).
